# Results reported in publication PMC7264293, “Multi-site-mediated entwining of the linear WIR-motif around WIPI β-propellers for autophagy” (Nature Communications, 2020).
# No end group written: not given here.
# Columns and labels:
# [1] = tested on: NRK cells with double knock out of ATG2A/ATG2B and stable expression of GFP-LC3; experiment: Autophagic flux in ATG2A/ATG2B DKO NRK cells in the presence of bafilomycin A1; assay type: cell-based, rat; settings: ATG2A/ATG2B-depleted NRK cells without ATG2A transfection; 10 nM, 2 h
# Method: NRK cells with double knock out of ATG2A/ATG2B and stably transfected with GFP-LC3 were generous gifts from L.Y., Tsinghua University. DNA sequences encoding full-length ATG2A and its various mutants were cloned into the pCAG-Tandem-Strep-Flag vector. Cells were cultured in DMEM (GIBCO) supplemented with 10% (v/v) fetal bovine serum, 100 U/ml penicillin and 0.1 mg/ml streptomycin and were grown at 37 °C in a humidified atmosphere containing 5% (v/v) CO2. Cells were transfected with wild-type ATG2A and various mutants by the electroporation apparatus (Bio-Rad) according to the manufacturer’s instructions. After 48 h, cells were washed three times by PBS and fixed by 4% (w/v) paraformaldehyde. […] ATG2A and its various mutants were detected by immunofluorescence with the anti-Flag primary antibody (Sigma-Aldrich, F1804, 1:300 dilution) and dylight 594 secondary antibody (EarthOx, E032410-01, 1:500 dilution). Fluorescence images were obtained on an inverted confocal microscope (LSM 880, Carl Zeiss) equipped with a 100 × oil-immersion objective lens (NA = 1.30). […] All the fluorescence images were processed and analyzed using the ZEN imaging software (Carl Zeiss). […]
# μm. (b) Quantification of the increment of LC 3 -positive structures with bafilomycin […]
# A1 treatment. The increment o f LC 3 -positive structures per cell was quantified with […]
# used for quantifi cation (n = 3) . […]
# [2] = tested on: NRK cells with double knock out of ATG2A/ATG2B and stable expression of GFP-LC3; experiment: LC3-positive structures in ATG2A/ATG2B DKO NRK cells transfected with ATG2A; assay type: cell-based, rat; settings: transfection of full-length ATG2A into ATG2A/B-depleted NRK cells
# Method: NRK cells with double knock out of ATG2A/ATG2B and stably transfected with GFP-LC3 were generous gifts from L.Y., Tsinghua University. DNA sequences encoding full-length ATG2A and its various mutants were cloned into the pCAG-Tandem-Strep-Flag vector. Cells were cultured in DMEM (GIBCO) supplemented with 10% (v/v) fetal bovine serum, 100 U/ml penicillin and 0.1 mg/ml streptomycin and were grown at 37 °C in a humidified atmosphere containing 5% (v/v) CO2. Cells were transfected with wild-type ATG2A and various mutants by the electroporation apparatus (Bio-Rad) according to the manufacturer’s instructions. After 48 h, cells were washed three times by PBS and fixed by 4% (w/v) paraformaldehyde. For bafilomycin A1 treatment, cells were cultured in the complete medium containing 10 nM bafilomycin A1 for 2 h before being fixed. ATG2A and its various mutants were detected by immunofluorescence with the anti-Flag primary antibody (Sigma-Aldrich, F1804, 1:300 dilution) and dylight 594 secondary antibody (EarthOx, E032410-01, 1:500 dilution). Fluorescence images were obtained on an inverted confocal microscope (LSM 880, Carl Zeiss) equipped with a 100 × oil-immersion objective lens (NA = 1.30). Confocal settings used for image capture were held constant in comparison experiments. All the fluorescence images were processed and analyzed using the ZEN imaging software (Carl Zeiss). […]
# WIPI3-Δloop = biological target: T1, WIPI3-Δloop (Homo sapiens, UniProt Q5MNZ6, DEL264-281/DEL75-80); experiment: ITC assay, WIR-peptide and its mutants binding to WIPI3-Δloop; settings: WIPI3-Δloop (Fig. 3e, Supplementary Figs. 6, 7)
# T1 construct: GB1-His6 (cleaved yes); made in house; host or cells: Escherichia coli BL21(DE3)
# T1 sequence (Q5MNZ6 with tags, fused parts or gaps DEL75-80/DEL264-281): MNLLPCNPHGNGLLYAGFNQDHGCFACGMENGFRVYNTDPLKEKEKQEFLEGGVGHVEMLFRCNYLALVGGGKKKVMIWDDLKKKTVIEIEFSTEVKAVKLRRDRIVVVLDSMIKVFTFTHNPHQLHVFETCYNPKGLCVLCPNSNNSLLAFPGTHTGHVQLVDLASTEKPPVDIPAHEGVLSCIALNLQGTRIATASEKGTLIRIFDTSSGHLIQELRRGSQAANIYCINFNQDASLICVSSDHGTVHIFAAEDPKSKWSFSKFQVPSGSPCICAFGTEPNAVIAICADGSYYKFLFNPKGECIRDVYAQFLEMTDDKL
# Method: (§1) DNA sequences encoding human WIPI3, WIPI3-Δloop, and two ATG2A fragments (1358–1404 and 1374–1404) were each cloned into a modified pET32a vector. The generation of the fusion construct of WIPI3-Δloop with ATG2A(1374–1404) and the mutations in WIPI3 and the ATG2A fragment were performed by using the standard PCR-based mutagenesis method and confirmed by DNA sequencing. All the primers used in the study were listed in Supplementary Table 3. Recombinant proteins were expressed in Escherichia coli BL21(DE3) (Invitrogen, C6000-03) host cells at 16 °C. […] The eluted proteins were further purified by size-exclusion chromatography (Superdex-200 26/60, GE healthcare). For WIPI3 proteins, after cleavage of the tag, the resulting proteins were purified by another step of size-exclusion chromatography with the buffer containing 50 mM Tris-HCl, pH 8.0, 100 mM NaCl, 1 mM EDTA, 1 mM DTT. For ATG2A fragments, recombinant proteins were purified in the same buffer without cleavage of the tag.
# ITC assay was performed using a MicroCalorimeter ITC200 (GE Healthcare Life Sciences, USA) at 25 °C. Prior to the experiment, the protein samples were dialyzed in the buffer containing 50 mM Tris-HCl, pH 8.0, 100 mM NaCl, 1 mM EDTA, and 1 mM DTT. WIPI3 proteins were put in the sample cell and GB1-tagged ATG2A fragments were in the syringe of the instrument. In each experiment, the ATG2A fragment was sequentially injected into the stirred calorimeter cell initially containing the WIPI3 protein sample with the injection sequence of 20 × 2 µl at 2-min intervals. The heat of dilution obtained by the titration of the ATG2A fragment into the buffer was subtracted. The integrated, corrected, and concentration-normalized peak areas of the raw data were finally fitted with a model of one binding site using ORIGIN 7.0 (OriginLab).
# WIPI3-Δloop N19A/D21A = experiment: ITC assay, WIR-peptide binding to WIPI3-Δloop N19A/D21A; set-up: species or system human; settings: WIPI3-Δloop N19A/D21A mutant (Supplementary Fig. 5b)
# Method: as §1
# ITC assay was performed using a MicroCalorimeter ITC200 (GE Healthcare Life Sciences, USA) at 25 °C. […]
# Supplementary Fig. 5 Structural analysis of the A -B loop of blade 1. […] (b) The binding affinity between the W IR -pept ide and th e W IP I3 -Δloop N19A/D21 A mutant determined b y IT C ex periments. […]
"effect of the WIR-peptide mutation on the binding, in words (WIPI3-Δloop)",Compound,further results
disrupted the binding,"WIR-peptide D1393A: WIR-peptide with D1393A mutation (PRDGEPVVTQLHPGPIVVRAGYFSRPIGSTD; also: GB1 tag, end not given here, His6 tag, end not given here)",–
decreased the binding more severely,"WIR-peptide V1381A: WIR-peptide with V1381A point mutation (PRDGEPVATQLHPGPIVVRDGYFSRPIGSTD; also: GB1 tag, end not given here, His6 tag, end not given here)",–

# More lines, now with the values behind:
Compound,"effect of the WIR-peptide mutation on the binding, in words (WIPI3-Δloop)",further results
CO/C1=C\C(C)=C\[C@@H](C)[C@@H](O)[C@@H](C)C/C(C)=C/C=C/[C@H](OC)[C@@H]([C@@H](C)[C@@H](O)[C@H](C)[C@@]2(O)C[C@@H](O)[C@H](C)[C@@H](C(C)C)O2)OC1=O [bafilomycin A1],–,"increase of LC3-positive structures in the presence of bafilomycin A1, in words [1]: No obvious increase"
"ATG2A WT: full-length wild-type ATG2A, Tandem-Strep-Flag-tagged, expressed by transfection",–,"rescue of the depletion defect (large LC3-positive clusters), in words [2]: could rescue the depletion defect"
"WIR-peptide V1380A: WIR-peptide with V1380A point mutation (PRDGEPAVTQLHPGPIVVRDGYFSRPIGSTD; also: GB1 tag, end not given here, His6 tag, end not given here)",affected the binding,–
"WIR-peptide V1391Q: WIR-peptide with V1391Q point mutation (PRDGEPVVTQLHPGPIVQRDGYFSRPIGSTD; also: GB1 tag, end not given here, His6 tag, end not given here)",severely impaired the binding,–
"WIR-peptide: GB1-tagged recombinant short fragment (1374–1404) of ATG2A, minimum WIPI-interacting region (PRDGEPVVTQLHPGPIVVRDGYFSRPIGSTD; also: GB1 tag, end not given here, His6 tag, end not given here)",–,"binding of the WIR-peptide, in words (WIPI3-Δloop N19A/D21A): abolished the binding"
